Assay results published in US20230272073A1 (AVA LIFESCIENCE, published 2023).

Molecular target: T1, soluble recombinant version of the IGLV3-21^R110-harboring B-cell receptor, produced as monomeric human IgM (human)
T1 construct: 170.5 kDa, made by transient expression in 293-HEK cells; It was the analyte in solution in BLI; also called soluble IGLV3-21^R110 B-cell receptor; soluble BCR-fragment
Assay: BLI (Octet)
Method: Kinetic assays were performed by first immobilizing the anti IGLV3-21^R110 antibodies onto biosensors through an indirect capturing reagent, anti-human IgG Fc antibody. Anti IGLV3-21^R110 antibodies were loaded at a concentration of 0.01875 μg/ml to generate an anti IGLV3-21^R110 antibody capture level of between 0.30 and 0.34 nm. […] The anti IGLV3-21^R110 antibody capture biosensors were then submerged in wells containing the different concentrations of the soluble BCR-fragment for 900 seconds (association stage) followed by a dissociation step of 1200 seconds in running buffer. Steps were performed at a constant shake speed of 1000 rpm. All reagents were used as described by the manufacturer. Sensorgrams were generated after double reference correction (buffer and blank sensors) to compensate for both the natural dissociation of the capture anti IGLV3-21^R110 antibody and also non-specific binding of the soluble BCR-fragment to the sensor surface. […] (KD) were calculated based on the ratio of association (kₐ) and dissociation rate (kd) constants, obtained by fitting sensorgrams with a first order 1:1 binding model using the Fortebio Data Analysis software (Satorius).
For the KD values of all humanized antibodies, see Table 3.

T1 sequence (heavy, as listed by the source limits assumed, chain 1 of 2): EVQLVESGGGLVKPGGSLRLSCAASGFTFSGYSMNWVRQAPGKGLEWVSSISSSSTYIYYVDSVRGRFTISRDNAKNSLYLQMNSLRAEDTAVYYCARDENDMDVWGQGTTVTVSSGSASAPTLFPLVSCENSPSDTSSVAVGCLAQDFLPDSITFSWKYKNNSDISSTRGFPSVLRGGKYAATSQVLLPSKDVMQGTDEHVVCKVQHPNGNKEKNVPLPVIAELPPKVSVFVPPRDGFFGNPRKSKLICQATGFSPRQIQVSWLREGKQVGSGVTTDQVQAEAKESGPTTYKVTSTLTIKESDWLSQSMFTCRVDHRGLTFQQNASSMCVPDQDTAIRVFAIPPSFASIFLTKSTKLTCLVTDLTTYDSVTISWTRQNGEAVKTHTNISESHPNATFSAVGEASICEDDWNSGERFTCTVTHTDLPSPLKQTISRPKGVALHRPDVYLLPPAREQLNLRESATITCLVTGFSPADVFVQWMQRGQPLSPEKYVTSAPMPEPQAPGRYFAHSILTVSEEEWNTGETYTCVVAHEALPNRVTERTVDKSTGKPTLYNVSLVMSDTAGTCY
T1 sequence (light, as listed by the source limits assumed, chain 2 of 2): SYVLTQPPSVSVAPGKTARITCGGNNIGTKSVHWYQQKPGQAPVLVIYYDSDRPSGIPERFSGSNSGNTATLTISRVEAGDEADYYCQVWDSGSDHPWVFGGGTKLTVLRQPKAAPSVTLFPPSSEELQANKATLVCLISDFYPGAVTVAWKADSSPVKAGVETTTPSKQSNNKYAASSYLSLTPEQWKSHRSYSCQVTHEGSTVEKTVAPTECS

B1: HC7-LC6 (antibody, human IgG1, kappa, V domains shown)
VH: QVQLQESGPGLVKPSETLSLTCTVSGFSLTSYGIHWIRQSPGRGLEWIGVIWRGGGTDSNAAFMSRITISRDTSKTQVSLKLGSVTAADTAIYYCARSRYDEEESMNYWGQGTSVTVSS
VL: EIVLTQSPSSLSASVGDSVTITCRASGNIHSYLAWYQQKPGKAPKLLIYNAKTLADGVPSRFSGSGSGTQYTLTISSLQPEDFATYYCQHFWNTPPTFGAGTKLELKR
notes: Humanized antibody, human IgG1 / kappa
With B1 the “fold of dissociation constant relative to chimeric antibody HC0-LC0” value was at most 2 fold.
